One molecule from paper PMC4825978, “A Hox Transcription Factor Collective Binds a Highly Conserved Distal-less cis-Regulatory Module to Generate Robust Transcriptional Outcomes” can be followed below.

In data set [1] the target is T1, Exd51A (ExdN51A);Hth (in heterodimer) (Drosophila melanogaster?;Drosophila …, UniProt P40427;O46339 1-376;1-487, N291A|).
T1 sequence 1: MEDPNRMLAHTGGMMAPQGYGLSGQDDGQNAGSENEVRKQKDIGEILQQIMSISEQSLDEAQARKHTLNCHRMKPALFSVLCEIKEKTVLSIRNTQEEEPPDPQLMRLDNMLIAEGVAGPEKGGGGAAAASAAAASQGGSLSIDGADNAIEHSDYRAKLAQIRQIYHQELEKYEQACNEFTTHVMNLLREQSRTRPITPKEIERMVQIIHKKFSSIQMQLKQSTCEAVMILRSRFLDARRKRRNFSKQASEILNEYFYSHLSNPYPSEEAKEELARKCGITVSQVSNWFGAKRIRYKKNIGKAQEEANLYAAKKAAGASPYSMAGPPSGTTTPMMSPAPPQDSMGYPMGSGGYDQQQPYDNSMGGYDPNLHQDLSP
T1 sequence 2: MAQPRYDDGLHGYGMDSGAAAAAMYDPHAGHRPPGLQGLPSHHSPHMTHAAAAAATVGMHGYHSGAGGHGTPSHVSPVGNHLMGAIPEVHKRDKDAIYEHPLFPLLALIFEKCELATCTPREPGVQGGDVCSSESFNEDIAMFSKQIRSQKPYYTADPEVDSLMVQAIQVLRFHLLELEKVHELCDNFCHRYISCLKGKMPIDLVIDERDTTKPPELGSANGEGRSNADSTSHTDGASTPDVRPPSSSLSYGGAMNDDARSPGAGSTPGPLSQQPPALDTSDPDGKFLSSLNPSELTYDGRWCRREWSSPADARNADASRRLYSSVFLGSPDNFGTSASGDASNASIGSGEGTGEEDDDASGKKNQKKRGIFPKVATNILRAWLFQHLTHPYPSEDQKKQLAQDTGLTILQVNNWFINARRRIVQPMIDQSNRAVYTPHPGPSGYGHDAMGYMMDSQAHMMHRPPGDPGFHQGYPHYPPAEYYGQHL
The data set can be described thus: EMSA; 200 nM heterodimer, no Abd-A; no significant binding; Native PAGE EMSA, probe 0.36 uM, triplicate; buffer, salt, pH and temperature not given (as previously described). Further probes (single/paired sites, Hox point mutants; percent bound) only in S4 and S5 Figs, not in the material, number of rows unknown. To be noted: protein: recombinant;recombinant; tags: ;His; copies: 1;1. On the technique in general: A gel shift assay detects complexes by their altered migration in electrophoresis.

Data set [2] has as its target Abd-A;Exd51A (ExdN51A);Hth (in heterodimer) (Drosophila melanogaster?;Drosophila …, UniProt P29555;P40427;O46339 261-590;1-376;1-487, |N291A|). Kind of data set: EMSA; Abd-A 37.5-300 nM with 200 nM ExdN51A/Hth; significant cooperative complex; Native PAGE EMSA, probe 0.36 uM, triplicate; buffer, salt, pH and temperature not given (as previously described). Further probes (single/paired sites, Hox point mutants; percent bound) only in S4 and S5 Figs, not in the material, number of rows unknown. To be noted: protein: recombinant;recombinant;recombinant; tags: His;;His; copies: 1;1;1.

Data set [3] concerns the target Abd-A;Exd (in Exd/Hth heterodimer);Hth (in heterodimer) (Drosophila melanogaster?;Drosophila …, UniProt P29555;P40427;O46339 261-590;1-376;1-487, ||). Kind of data set: EMSA; Abd-A 37.5-300 nM with 75 nM Exd/Hth; highly cooperative, third slower complex; Native PAGE EMSA, probe 0.36 uM, triplicate; buffer, salt, pH and temperature not given (as previously described). Further probes (single/paired sites, Hox point mutants; percent bound) only in S4 and S5 Figs, not in the material, number of rows unknown. The settings on record: protein: recombinant;recombinant;recombinant; tags: His;untagged;His; copies: 1;1;1.

Sequence of Abd-A;Exd51A (ExdN51A);Hth (in heterodimer) (P29555 261-590, stated change not applied, one chain of several): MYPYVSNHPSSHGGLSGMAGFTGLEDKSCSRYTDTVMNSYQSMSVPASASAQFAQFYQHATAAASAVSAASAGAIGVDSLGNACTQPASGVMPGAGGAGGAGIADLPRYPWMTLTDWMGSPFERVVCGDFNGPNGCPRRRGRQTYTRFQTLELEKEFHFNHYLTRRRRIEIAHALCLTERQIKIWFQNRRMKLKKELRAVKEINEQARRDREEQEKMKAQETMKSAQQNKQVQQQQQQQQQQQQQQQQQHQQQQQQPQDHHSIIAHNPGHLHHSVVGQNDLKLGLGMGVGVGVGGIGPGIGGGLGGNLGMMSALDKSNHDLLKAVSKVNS
Sequence of Abd-A;Exd (in Exd/Hth heterodimer);Hth (in heterodimer) (P29555 261-590, one chain of several): as the sequence (P29555 261-590, stated change not applied, one chain of several) above

B1: DCRE wild-type full-length probe (dsDNA)
DNA 1: GGAATTTATGTCCGACAATATTTGGGAAATTAAATCATTCCCGCGGACAGTTTTATAGTGCGGGCGTGGC
DNA 2: GCCACGCCCGCACTATAAAACTGTCCGCGGGAATGATTTAATTTCCCAAATATTGTCGGACATAAATTCC
On to B1, for which the binding result was “no binding” in data set [1], “binds” in data set [2] and “binds” in data set [3].
